test: soluble on expression in E. coli; label from the status in PepcDB or PDB records

Sequence	soluble on expression in E. coli
MKVDGRRPEDEVIRETNAHGVSVVHIKKDPTTQKVEIVKNSIFNRRITASTVMEFAGAAAGSSLLATRFSPAGRQTRGTHNNCGNGYTPWGTYLTTEENFIGYFQRSGSDEYARTDAEKIALKRYGLGVKKDEPYLYEKDEKGAPKKDKDGKIIYLKDKNGELIPNVDEQGRQIYLGTSSRYGWETAIGQVESQDLYDRWNADVKAAQATQDYRNGPNTFGWMVEIDPFDGRQNPVKRTSLGRFAHEDSACRAVVGQPLAFYMGDDSRGEYIYKFVSTAVWDTKDINGGYTAGDKYMNAGKLYVAKFNNDGSGQWIELAYGKNGLNESNTTYPFKSQADVVTFARLAADSVGATKMDRPEWCTVNPVNGEIYVTLTNNSNRGKDYATDAANPRNYTDLYAGTKEQKGNVNGHIIRFKETDDKTTAETFKWDIYLFGAEASMASNINLSGLTDNNDFSSPDGMWFDPRGVLWIETDDGAYTDVTNCMMLAALPGQIGDGGTATTSNGQQTITGAKVTDATLRRFLVGPKQCEITGIAMTPDYKAIFINVQHPGEDSPSYAKPESNWPATQKDPSNKTARPRSATVVITRKDGGVIAGLEHHHHHH	soluble
MTPEAPYASLTEIEHLVQSVCKSYRETCQLRLEDLLRQRSNIFSREEVTGYQRKSMWEMWERCAHHLTEAIQYVVEFAKRLSGFMELCQNDQIVLLKAGAMEVVLVRMCRAYNADNRTVFFEGKYGGMELFRALGCSELISSIFDFSHSLSALHFSEDEIALYTALVLINAHRPGLQEKRKVEQLQYNLELAFHHHLCKTHRQSILAKLPPKGKLRSLCSQHVERLQIFQHLHPIVVQAAFPPLYKELFST	soluble
MAHHHHHHMGQAFMEDQGNSLVVWGSTGRRLQFSMQDLKMPASLRDTPHFHFYEKQWDAVASFWFNRVLKESALQHLSVEAIVELIRQDISKRWERRREEQSIYKKRKRLLQRSGPAGTPSASVLLTNVTTLDGYQAATEMEQRDLVTALVERVEDVANDKVESWQVLVDDASEQRPAKAARVEGTAATSGEHPENDADGASDFDDRVAVVLKLSSKEKAATTIAHLHGSRFDDRRVLCRFWSE	soluble
VVPGPVHTSPREVAGPVDVLILAVKATQNDAARPWLTRLCDERTVVAVLQNGVEQVEQVQPHCPSSAVVPAIVWCSAETQPQGWVRLRGEAALVVPTGPAAEQFAGLLRGAGATVDCDPDFTTAAWRKLLVNALAGFMVLSGRRSAMFRRDDVAALSRRYVAECLAVARAEGARLDDDVVDEVVRLVRSAPQDMGTSMLADRAAHRPLEWDLRNGVIVRKARAHGLATPISDVLVPLLAAASDGPG	not soluble
MGSDKIHHHHHHMIELERVCKDYHTRQGMRRVLNRIDLRVKQGEKVGILGRNGAGKSTLIRMISGAELPTEGRIRRSMNVSWPLAFGGAFQGSLTGMDNLRFICRVYGADPKAAEPFVQEFSELGYYLREPVKSYSAGMRARLAFAISMAIEFDCFLIDEIVAVGDSRFHAKCHHELFEQRKDRALIIVSHDASYIRQHCDRASVLIEGKLHSFDSVEDAYTFYQESTA	not soluble
MNFKPIKPKKISTQIAEQIRSSILAGEFTPGEKLPPERELAEMFGVSRPSVREALNILAAAGLVESYQGGGTIVKSLMDAASGPPLSEIIKVEQERALDVIEVRKCMEAWTAYYAAQRALPDDVRKLEGIVWNMEANLNGLKPSEDLDANFHIVIARSTHNVVWLHLMQTIFEAMKEFQRSVWRAVYLTEEDHRTLFAHHKAIFEAIRDKDCERARNAMLGHLTFAEKRSSIYVNQSRQDR	not soluble
MGSDKIHHHHHHMTLINKLKQHLSDSQITQAQLAREAGVNAGALSAYLNDNYKGNIADVEAKLAAYLEKKAVQAREFVEAPAFIETATSRQIFKTLEFAQIANCLATVYGMSGVGKTKAIQEFAKSHANVWLVTASPSRSSLSEILYEIALELGISDAPRRKGTLSRLIARKIKGTEGLLIVDEADHLPYEALEELRIMQEEAGIGLVLVGNDKVYTRMKGGISPSHEYARLWSRVAKNTSIQKTKKADTQAVAQAWGLETDEEALKVMQSITETGGGLRILTQTYACRNGSKRIWQVD	not soluble
MSLAEIRIRPLEVSALSRRLCIWADIVDASGVLLNSAPVWFDVSAMGEVWTPSTDAEKGTAVDVHPLKREFIDVAAAGIEPASRREIEGKEFSRRVESGQPITKDVLRAIPEIKNGDIVFVEVRVGTVFLRSRAEAMHDAYIGDRIKLKSVSSGETMLGVVLSAGRVWIGSEGHHHHHH	not soluble
MGSDKIHHHHHHMKTNTSNQTTPQLATIKLFAMGCHIQISLYTTRLSAQYSQMTIDQQVAFLTSDVQQRLAYWEHIFSRFDDTSELMRLNNRGDQWSEVSSELFEVLQHAIHFVLKTQGLVTPTLLQPLWAAGYKHSFETLPKISMPSLPFTGLSAPSNVQDTTSANHANQQIGRIQLRQLTDGQHQVYLPTGMALDLNGYVKGWCAMQLAEHISRVHDWHIPCLVDMGGDIAIGIPRDPIDKPVTWGVAVAKPYFANSKHVQNDEDVAILKLSSGAVATSGQDYRRWWHDGRWQHHLIHPHDSRPVTSDVLTATVLATDTMTAEVYAKYCLLLGVKVAMAWLNKYHIAALLIDTDNKVMATSAIRPHLLQPNVVKSNVMSI	not soluble
ESRSQISRRNQDMLLSVLDLEKVSVNDIMVPRNEIVGIDINDDWKSIVRQLTHSPHGRIVLYRDSLDDAISMLRVREAYRLMTEKKEFTKEIMLRAADEIYFVPEGTPLSTQLVKFQRNKKKVGLVVDEYGDIQGLVTVEDILEEIVGDFTTSMSPTLAEEVTPLNDGTVIIDGSANVREINKAFNWHLPEDEARTVNGII	soluble
MGSDKIHHHHHHMIKEFNATVRYLESVLESEIDEREFLRISGYSVPMFSRLFSILTDMSLSEYVRLRKLTRAAMDIREGQAKIIDIAFKYGYESSDSFAFAFKQFHQISPSQVRKGLPFKVLLPLQLSLTIQGGKEMDVRIEKKAGFTVAGLLRTAISNEVCPQVWEDLFKNHTYEELAALGSGQSFGVCTLAQADETINYMAAYDVTDSEKATKLGLELLDVHEADYAIFTLIGPVPQSIHAGWRYALETFFPEHGYRHSGAPDFEYYFEGDMSSPDYQMELWIPIVKA	not soluble
MSLIAIYVRVSTEEQAIKGSSIDSQIEACIKKAGTKDVLKYADEGFSGELLERPALNRLREDASKGLISQVICYDPDRLSRKLMNQLIIDDELRKRNIPLIFVNGEYANSPEGQLFFAMRGAISEFEKAKIKERTSSGRLQKMKKGMIIKDSKLYGYKFVKEKRTLEILEEEAKIIRMIFNYFTDHKSPFFGRVNGIALHLTQMGVKTKKGEGHHHHHH	not soluble
MTDERYGYIHASMLPTQCLCTKLRRAARSVSRFYDEALADTGLKVAQFSLLRHLRRLDRPSISELAEAMGLDRSTLGRNLRVLEGDGLLRLTGGEDQRNRLVELTPAGLDALERGTPAWEDAQRRLAGRLGEERSGALAALLAELERLD	not soluble
IVGGRRARPHAWPFMVSLQLRGGHFCGATLIAPNFVMSAAHCVANVNVRAVRVVLGAHNLSRREPTRQVFAVQRIFENGYDPVNLLNDIVILQLNGSATINANVQVAQLPAQGRRLGNGVQCLAMGWGLLGRNRGIASVLQELNVTVVTSLCRRSNVCTLVRGRQAGVCFGDSGSPLVCNGLIHGIASFVRGGCASGLYPDAFAPVAQFVNWIDSIIQ	soluble
TVSQLRSRITRFALAGRGMRETVTWSFISEKQALAFGGGQAQLKLVNPISADMSVMRPSLLPGLLVAAQRNADRGFPDFALFEVSNIYEDDTPDKQHRVAGGIRRGTEQFGGAGRFWNGNARAVDVFDAKADALAVLEACGLESGKVQIEVGAPDWYHPGRSGVIKLGSKIILGFFGVFHPATLEKLDISGPLCGFEIFL	not soluble
MAGDPMSRRVIRTYKLAVPGHLSQTCEELNRTAARIYNKTMSLVRKIHQKKGFWLSWPTADKYILRWAENIKIHVHSKQAFVQLYFQALKGYFKATKKNPDAKPPHKKKRYLPFIWKESAVKLLPDGTLRLSLGKERESFVVQTPLKPPLRIKQTRLVFEDGYYLHLAIEVEIEEKNAGSGVMAVDLGVLRPITCFDGKEVISYHGGVLSSVLRYRNKRLASFQSAIAECKKGSRRYNKLVRAKKRVLRRLRNQINDIMHKITSNFIGLCLRKQIGTIVIGDVTGIRERADYSDNANQKIHQWQFRKLIEMIRYKAEQFGIEVKLISEANTSKTCPVCGAKNNPNGRRYHCKACGFEYHRDGVGAINIWKRYPGTGQVVAGLAPVRGVRFHPHLCGHGASLAPWKVALEHHHHHH	not soluble
MGHHHHHHSHMLVLRSGLTKALASRTLAPQVCSSFATGPRQYDGTFYEFRTYYLKPSNMNAFMENLKKNIHLRTSYSELVGFWSVEFGGRTNKVFHIWKYDNFAHRAEVRKALANCKEWQEQSIIPNLARIDKQETEITYLIPWSKLEKPPKEGVYELAVFQMKPGGPALWGDAFERAINAHVNLGYTKVVGVFHTEYGELNRVHVLWWNESADSRAAGRHKSHEDPRVVAAVRESVNYLVSQQNMLLIPASFSPLK	not soluble
MGSDKIHHHHHHMKMVTKLSIVLGLIATLVLSGCQKHDTHEEMPHYAATTPFREDTSILEPYVCQIRAIRHIEVRSLEKGYLTHIFIDEGQWVKKGQPMFKIMPNVYQAELLTAEAEAQNVNIEYLNTKALADKNIVSANELALAKAKLDKANAQVNLAKTHLGFTDIRAPFDGITDHLAVRIGSLLDEDDLLTELSDIAHLWVYFNVPEAKYLDFIRREKGKTNEKVQLRMANGEIYEHTGVIETIVGDFYNTSGNIQFRALFENPDRVLRHGQTGTILMTVPYPNAMLIPQKATFEIMDKIYLYVVNKEEKVEQRLIQIEAELPHMFIVKSGVNDGERILIEGMRKVSPGDKVMIDLKPPQEVRSELMKLYTE	not soluble
MSAISPDTKSFAIPTLADEGSSSKPASSLDLPKHESIRFKPIKTLASRIDGSEYYDEASMEKVMEMLEIGRTDEAVAYADTLYSNIIDDEQQDIVTIAEYVKILVVLRQWRRISHIIARGNYHQIHIVFAYYAATALFQRKLYEDVAELSVGHLLPSNGQIGPLPVRTLSQVTGRYVEEERMKYSFANMAELDNSSKKLRMVPALMITIAESFLKLMNRDAAMICINYALSLDNTTLHVERLMAKYNLVEPAMWEKYRKVRNEQLKLHEGNHDPRILMERAQRAYEMGRFRETKKITDELFDLFGPHPECIILRIHCLTMLKDSRSLLELGHQLVSDDPHIPLPWYCVAMYYYSIGANSRARNFISKCTMMDSTFAEGWVAFGHILHYEVEHEQSMSCYYRASKLVDKSSEPFLYTSLQYSTHSQKLSKKFMGEAVARAPNDPLIRHEEACVAYTAKSYAEADILFRTVLYMVTETDEIIPIEEVLKKKIDDFWHPMLNNIGHIARRQGRLNEAIMFYQKAIRMEPKFVDAIASTALCYAVLGNIDKATEFFNKALAIDPFNETIRQCLSKMIQASKESYSVDQQTLPPAYNSETYFGAQEILPYCAIRKPRNDGFVVPSIVSSSQPFMSMLRDRLRRQDQLYAQEPDNDAGNQV	not soluble
MSLSTARIMLVDDHPIVREGYRRLIERRPGYAVVAEAADAGEAYRLYRETTPDIVVMDLTLPGPGGIEATRHIRQWDGAARILIFTMHQGSAFALKAFEAGASGYVTKSSDPAELVQAIEAILAGRRAMSPDIAQEIAEERVEGRATAIADLSPRETEILRMLASGMTSDEIAAGLCLSVKTVQNNHYQIKAKLGARTDAHLVWVAIEAGLVREGHHHHHH	soluble

Reference: the DeepSol protein solubility set
